Reference: PMC4176161 (Nucleic Acids Research, 2014)
Read-outs that look alike come from different tables or passages of the source.

Key:
native gel or EMSA [1] = target: the molecule itself; experiment: native gel or EMSA
native gel or EMSA [2] = target: the molecule itself; experiment: native gel or EMSA; remark: listed apart in the source

Protein | stoichiometry N (native gel or EMSA [1]) | stoichiometry N (native gel or EMSA [2])
…1 (SEP1) (natural protein) MGRGRVELKRIENKINRQVTFAKRRNGLLKKAYELSVLCDAEVALIIFSNRGKLYEFCSSSNMLKTLDRYQKCSYGSIEVNNKPAKELENSYREYLKLKGRYENLQRQQRNLLGEDLGPLNSKELEQLERQLDGSLKQVRSIKTQYMLDQLSDLQNKEQMLLETNRALAMKLDDMIGVRSHHMGGGGGWEGGEQNVTYAHHQAQSQGLYQPLECNPTLQMGYDNPVCSEQITATTQAQAQQGNGYIPGWML | 2 | 4
…4 (SEP4) (natural protein) MGRGKVELKRIENKINRQVTFAKRRNGLLKKAYELSVLCDAEIALLIFSNRGKLYEFCSSPSGMARTVDKYRKHSYATMDPNQSAKDLQDKYQDYLKLKSRVEILQHSQRHLLGEELSEMDVNELEHLERQVDASLRQIRSTKARSMLDQLSDLKTKEEMLLETNRDLRRKLEDSDAALTQSFWGSSAAEQQQQHQQQQQGMSSYQSNPPIQEAGFFKPLQGNVALQMSSHYNHNPANATNSATTSQNVNGFFPGWMV | 2 | 4
…2 (SEP2) (natural protein) not shown | 2 | 4
